# B1: NIH45-46 (mature) (antibody, V domains shown)
# VH: QVRLSQSGGQMKKPGESMRLSCRASGYEFLNCPINWIRLAPGRRPEWMGWLKPRGGAVNYARKFQGRVTMTRDVYSDTAFLELRSLTSDDTAVYFCTRGKYCTARDYYNWDFEHWGRGAPVTVSS
# VL: EIVLTQSPATLSLSPGETAIISCRTSQSGSLAWYQQRPGQAPRLVIYSGSTRAAGIPDRFSGSRWGADYNLSISNLESGDFGVYYCQQYEFFGQGTKVQVD
# Biological target: eOD-GT6 (germline-targeting engineered outer domain of gp120) (HIV-1 isolate HXB2, engineered outer …)
# Assay: SPR
binder,measurement,value
B1,Kd,4 nM
